Article doi:10.1101/426809
Like-named read-outs stand apart in the source and are kept apart here.

Experiments:
[1] = molecular target: HupA-LgBiT (HupA fused to the large subunit of the bitLuc^opt split luciferase) (Clostridium difficile 630Δerm); test: split reporter
[2] = molecular target: HupA-HaloTag (HupA fused through a GS linker to HaloTag with a C-terminal 6xHis tag) (Clostridium difficile 630Δerm); test: cross-linking
[3] = molecular target: HupA_(6xHis), C. difficile HupA (CD3496) with a 6x histidine tag (Clostridium difficile 630Δerm); test: cross-linking
[4] = molecular target: HupA_(6xHis), C. difficile HupA (CD3496) with a 6x histidine tag (Clostridium difficile 630Δerm); test: cross-linking; remark: listed apart in the source
HupAQED6xHis = molecular target: T1, HupAQED6xHis (Clostridium difficile 630Δerm, UniProt Q180Z4 1-92, R55Q;R58E;R61D); test: EMSA
T1 sequence: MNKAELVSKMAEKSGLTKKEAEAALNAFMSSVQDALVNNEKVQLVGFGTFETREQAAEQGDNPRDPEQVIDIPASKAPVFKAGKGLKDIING

HupA-SmBiT (HupA fused to the small subunit of the bitLuc^opt split luciferase) (natural protein)
luciferase activity (LU/OD) after 1 h of induction [1]: 265000 LU/OD

HupA-HaloTag (HupA fused through a GS linker to HaloTag with a C-terminal 6xHis tag) (natural protein)
stoichiometry N [2]: 2

HupA_(6xHis), C. difficile HupA (CD3496) with a 6x histidine tag (natural protein)
stoichiometry N [3]: 2 | stoichiometry N [4]: 2

B1: oAF65/oAF66, 28.9% G+C (dsDNA)
DNA 1: CATTAAGTATGAGTATTCTATGTATAGATCATTGATGC
DNA 2: GCATCAATGATCTATACATAGAATACTCATACTTAATG
binding result (HupAQED6xHis): no binding

B2: oAF61/oAF62, 71.1% G+C (dsDNA)
DNA 1: CGCCAGGCCAGGGCTGTCACTGTGCAGCTCGTGGACGC
DNA 2: GCGTCCACGAGCTGCACAGTGACAGCCCTGGCCTGGCG
binding result (HupAQED6xHis): no binding

B3: oAF63/oAF64, 52.6% G+C (dsDNA)
DNA 1: CATCAGGCAAGAGTAGTCACTGTGTAGCTCGTGGATGC
DNA 2: GCATCCACGAGCTACACAGTGACTACTCTTGCCTGATG
binding result (HupAQED6xHis): no binding
